Experimental data as given in FireProtDB (doi:10.1002/pro.5560051112).
“And” between values parts separate entries of the source, which are not always exact repeats. Equal values may be shown once.

Details: pH 6, Thermal, DSC, Sodium cacodylate 2 mM, reversible: yes(>80%), whole UniProt chain shown; for unfolding free energy: 25 °C
[1] = Paenibacillus macerans, CaCl2 1 mM

B1: Beta-glucanase wild type, P23904 (protein)
chain: MKKKSCFTLVTTFAFSLIFSVSALAGSVFWEPLSYFNRSTWEKADGYSNGGVFNCTWRANNVNFTNDGKLKLGLTSSAYNKFDCAEYRSTNIYGYGLYEVSMKPAKNTGIVSSFFTYTGPAHGTQWDEIDIEFLGKDTTKVQFNYYTNGVGGHEKVISLGFDASKGFHTYAFDWQPGYIKWYVDGVLKHTATANIPSTPGKIMMNLWNGTGVDDWLGSYNGANPLYAEYDWVKYTSN
[1]
  unfolding free energy: 9 kcal/mol
  Tm: 50.8 °C and 50.5 °C
  unfolding enthalpy (calorimetric): 139 kcal/mol and 156 kcal/mol
Paenibacillus macerans
  unfolding free energy: 6.1 kcal/mol
  Tm: 44.5 °C
  unfolding enthalpy (calorimetric): 119 kcal/mol

B2: Beta-glucanase wild type, P07980 (protein)
chain: MKRVLLILVTGLFMSLCGITSSVSAQTGGSFFEPFNSYNSGLWQKADGYSNGDMFNCTWRANNVSMTSLGEMRLALTSPSYNKFDCGENRSVQTYGYGLYEVRMKPAKNTGIVSSFFTYTGPTEGTPWDEIDIEFLGKDTTKVQFNYYTNGAGNHEKFADLGFDAANAYHTYAFDWQPNSIKWYVDGQLKHTATTQIPAAPGKIMMNLWNGTGVDDWLGSYNGVNPIYAHYDWMRYRKK
Bacillus amyloliquefaciens, CaCl2 1 mM
  Tm: 58.9 °C
Bacillus amyloliquefaciens
  Tm: 48.7 °C
